Source: US20250154208A1

How the values were obtained:
[1] = target: IgG; assay: column chromatography, ligand coupled to agarose, IgG loaded at 1 mg/ml, before alkali treatment
[2] = target: IgG; assay: SPR, Biacore 4000; IgG amine-coupled to CM5 chip, C domain construct as analyte

(Native C-domain) 4
Initial IgG capability (dynamic binding capacity at 10% breakthrough) [1]: 165 mg/mL
Kd [2]: 7.18 nM
